Reference: paper PMC10869706, “Chp1 is a dedicated chaperone at the ribosome that safeguards eEF1A biogenesis” (Nature Communications, 2024)

B1: Chp1 (in yeast cells expressing V5-eEF1A) [yeast (S. cerevisiae)] / WT eEF1A (V5-TEF2) [yeast (S. cerevisiae)] (parent complex)
chain 1: MSTFNAETADNLEDIEKQFAVVAVEQAETYWKLLTSVPGSKLRLTKFDDEIYENFMERFPEYKDVERVKKFTEEELKTKEAKERWRKFFTIFEKKIEDYNFGTLLRTDASAEYGQFTTCFVVRLQFYAFEIARNKHGLNDWIVGQK
chain 2: MGKEKSHINVVVIGHVDSGKSTTTGHLIYKCGGIDKRTIEKFEKEAAELGKGSFKYAWVLDKLKAERERGITIDIALWKFETPKYQVTVIDAPGHRDFIKNMITGTSQADCAILIIAGGVGEFEAGISKDGQTREHALLAFTLGVRQLIVAVNKMDSVKWDESRFQEIVKETSNFIKKVGYNPKTVPFVPISGWNGDNMIEATTNAPWYKGWEKETKAGVVKGKTLLEAIDAIEQPSRPTDKPLRLPLQDVYKIGGIGTVPVGRVETGVIKPGMVVTFAPAGVTTEVKSVEMHHEQLEQGVPGDNVGFNVKNVSVKEIRRGNVCGDAKNDPPKGCASFNATVIVLNHPGQISAGYSPVLDCHTAHIACRFDELLEKNDRRSGKKLEDHPKFLKSGDAALVKFVPSKPMCVEAFSEYPPLGRFAVRDMRQTVAVGVIKSVDKTEKAAKVTKAAQKAAKK

Variants of: B1
Assay: co-IP (IP α-V5, blot α-Chp1), quantified; parent: 1; read off a plot

Row | Variant | ratio to parent
1 | chain 2 A125E | ~0.5
2 | chain 2 D91N | ~0.45
3 | chain 2 P331L | ~2.4
4 | chain 2 G382R | ~0.5
5 | chain 2 G70S | ~0.25
6 | chain 2 R421C | ~1.2
7 | chain 2 R264W | ~0.3
